Measurements as given in patent US20250304713A1, “COMBINATION IMMUNOTHERAPY COMPOSITIONS AND METHODS OF USE THEREOF” (THE PENN STATE RESEARCH FOUNDATION, priority 2022, published 2025).

Columns and labels:
9464D-GD2 cells = experiment: Cell viability, CellTiter-Glo; type: cell-based, mouse; details: 0.1 μM tipifarnib; 24, 48, 72 h
Protocol: 9464D-GD2 cells were seeded in a white, opaque 96-well plate. The following day, cells were treated with increasing doses of tipifarnib, and cell viability was measured at 24, 48 and 72 hours post-treatment using the CellTiter-Glo® Luminescent Cell Viability Assay (Promega, G7573) according to manufacturer's instructions. Microplate luminescence was measured using a CLARIOstar (BMG Labtech) plate reader. All data were normalized to non-treated controls. 9464D cells or 9464D crRab27a cells were plated at a density of 5000 cells/well in a 96-well plate and monitored for confluence using the Incucyte S3 μLive Cell Imaging System (Sartorius). The percent cell confluence was quantified using Incucyte Basic Cell Analysis package (Sartorius).

splenic NK cells = experiment: Flow cytometry of splenic NK cell subpopulations (maturation); type: in vivo, mouse
Protocol: (§1) Murine tumors and spleens were harvested at the experimental endpoint and mechanically disassociated. Tumors were further digested with tumor digestion buffer ([…] Collagenase Type I (Thermo Fisher, 17018029) and 2000 Units/ml DNase (Sigma-Aldrich, DN25-100MG) in HBSS buffer at room temperature for 1 hour. Dissociated tumor cells and spleen cells were passed through a 70 μm cell strainer (Falcon BD, 352350), pelleted, and washed once with PBS supplemented with 1% FBS. Red blood cells were lysed with RBC lysis buffer (0.0155 M NH4Cl, 1.2 mM NaHCO3, 0.01 mM Na2EDTA, pH 7.4 in distilled water) for 3 minutes on ice and neutralized with PBS supplemented with 10% FBS. Cells were centrifuged and resuspended in FACS buffer to obtain single cell suspensions.
(§2) All animal studies were performed according to guidelines established by the Institutional Animal Care and Use Committee (IACUC) at the Penn State College of Medicine (Hershey, PA). An immunocompetent mouse model of neuroblastoma was generated by subcutaneously injecting 1×10^6 9464D-GD2 cells in a 50:50 mixture of DMEM and Matrigel (Corning, 354234) into C57BL/6J mice (8- to 10-week-old, JAX 000664) with male and female mice represented at an equal ratio. One week following tumor cell inoculation, mice were randomized into treatment groups. Where indicated, mice were treated twice-weekly by tail-vein injection with PBS (100 μL), dinutuximab ([…] in 100 μL PBS), purified sEVs from 9464D-GD2 cells ([…] in 100 μL PBS), or the combination of dinutuximab and sEVs. Where indicated, tipifarnib (25 mg/kg) or an equivalent volume of vehicle was administered twice daily by oral gavage. Primary tumor growth was monitored by measuring tumor volume using calipers (volume=π(length*width^2)/6). At the experimental endpoint, mice were euthanized, and tumor, blood, spleen and bone marrow were harvested for ex vivo analysis. Endpoint tumor volume was calculated by measuring tumors using calipers (volume=π(length*width*height)/6). […]

[1] = test system: tumor-infiltrating NK cells, T-cells and tumor-associated macrophages in 9464D-GD2 tumors; experiment: Flow cytometry of tumor-infiltrating immune cells (NK cells, T-cells, TAMs); type: in vivo, mouse
Protocol: as §1
(§3) All animal studies were performed according to guidelines established by the Institutional Animal Care and Use Committee (IACUC) at the Penn State College of Medicine (Hershey, PA). An immunocompetent mouse model of neuroblastoma was generated by subcutaneously injecting 1×10^6 9464D-GD2 cells in a 50:50 mixture of DMEM and Matrigel (Corning, 354234) into C57BL/6J mice (8- to 10-week-old, JAX 000664) with male and female mice represented at an equal ratio. One week following tumor cell inoculation, mice were randomized into treatment groups. Where indicated, mice were treated twice-weekly by tail-vein injection with PBS (100 μL), dinutuximab ([…] in 100 μL PBS), purified sEVs from 9464D-GD2 cells ([…] in 100 μL PBS), or the combination of dinutuximab and sEVs. Where indicated, tipifarnib (25 mg/kg) or an equivalent volume of vehicle was administered twice daily by oral gavage. Primary tumor growth was monitored by measuring tumor volume using calipers (volume=π(length*width^2)/6). At the experimental endpoint, mice were euthanized, and tumor, blood, spleen and bone marrow were harvested for ex vivo analysis. Endpoint tumor volume was calculated by measuring tumors using calipers (volume=π(length*width*height)/6).
For cell surface staining, approximately 1×10^6 cells were stained with pre-mixed antibody cocktail panels (Table 1) in 100 μL FACS buffer (1% FBS, 0.2% NaN3 in PBS) for 30 minutes on ice. Cells were washed twice with FACS buffer and fixed with 2% paraformaldehyde (Fisher Scientific, 50-980-487) for 15 minutes. Fixed cells were washed once with PBS and resuspended in 0.5 mL FACS buffer for flow cytometric analysis using a LSR II or Symphony flow cytometer (BD Biosciences). Compensation was performed using UltraComp eBeads™ compensation beads (Invitrogen). FlowJo™ v10 (FlowJo, LLC) software was used for data analysis.

[2] = test system: NK cells (NK1.1+CD3-) in blood; experiment: Flow cytometry of blood NK cells of tumor-bearing mice; type: in vivo, mouse
Protocol: as §2

9464D-GD2 tumors = experiment: 9464D-GD2 syngeneic subcutaneous neuroblastoma model, tumor growth, volume and weight; type: in vivo, mouse
Protocol: as §3

[3] = day 30, treatment as FIG. 1D (FIG. 3C)
[4] = day 24, treatment as FIG. 4D (FIG. 5A)

Molecule	cytotoxicity (cell viability) (9464D-GD2 cells)	percentage of mature NK cells in the spleen (CD27-CD11b+) (splenic NK cells; day 24, treatment as FIG. 4D, vs control or tipifarnib alone (FIG. 5C))	percentage of mature splenic NK cells (CD27-CD11b+) (splenic NK cells; [3])	percentage of splenic NK cells with immature phenotype (CD27+CD11b-) (splenic NK cells; [3])	TAM population (CD11b+F4/80+) [1, 4]	tumor-infiltrating NK cells (NK1.1+CD3-) [1, 4]	tumor-infiltrating T-cells (CD3+NK1.1-) [1, 4]	tumor-associated macrophage (TAM) population (CD11b+F4/80+) ([1]; day 30, treatment as FIG. 1D (FIG. 2E bottom))	tumor-infiltrating NK cell population (NK1.1+CD3-) ([1]; day 30, treatment as FIG. 1D (FIG. 2E top))	level of circulating NK cells (mobilization) ([2]; day 24, treatment as FIG. 4D (FIG. 5B))	percentage of serum (blood) NK cells, NK cell mobilization ([2]; day 30, treatment as FIG. 1D (FIG. 2F))	tumor growth (tumor volume over time) (9464D-GD2 tumors; dinutuximab 1.25 mg/kg and/or 9464D-GD2 sEVs 20 μg, tail vein twice weekly from one week post-inoculation, to day 30, vs PBS (FIG. 1E))	tumor growth and weight, sEV rescue experiment (9464D-GD2 tumors; dinutuximab and/or tipifarnib with or without sEVs, day 24 (FIG. 6B-D))
Cn1cncc1[C@@](N)(c1ccc(Cl)cc1)c1ccc2c(c1)c(-c1cccc(Cl)c1)cc(=O)n2C [tipifarnib]	absence of cytotoxicity												
dinutuximab (antibody, chains of the INN, looked up, V domains shown, chimeric monoclonal antibody against the disialoganglioside GD2) VH: EVQLLQSGPELEKPGASVMISCKASGSSFTGYNMNWVRQNIGKSLEWIGAIDPYYGGTSYNQKFKGRATLTVDKSSSTAYMHLKSLTSEDSAVYYCVSGMEYWGQGTSVTVSS VL: EIVMTQSPATLSVSPGERATLSCRSSQSLVHRNGNTYLHWYLQKPGQSPKLLIHKVSNRFSGVPDRFSGSGSGTDFTLKISRVEAEDLGVYFCSQSTHVPPLTFGAGTKLELK		significantly increased the percentage of mature NK cells in the spleen	increased the percentage of mature splenic NK cells	significantly decreased the percentage of splenic NK cells with an immature phenotype	decreasing TAMs	enhancing the mobilization of NK cells and percentages of tumor-infiltrating NK cells and T-cells	enhancing the mobilization of NK cells and percentages of tumor-infiltrating NK cells and T-cells	significantly decreased the TAM population	significantly increased the tumor-infiltrating NK cell population	enhancing the mobilization of NK cells	significant increase in the percentage of serum NK cells	dramatically suppressed tumor growth	mild anti-tumor activity alone
